Assay results: article PMC6945034, “A Genetic Screen To Identify Genes Influencing the Secondary Redox Couple NADPH/NADP^+ in the Yeast Saccharomyces cerevisiae” (G3: Genes|Genomes|Genetics, 2019)

Experiments:
purified protein [1] = substrate: O=C(O)C(=O)CO; experiment: purified protein; assay type: biochemical, Saccharomyces cerevisiae; conditions: 0.25 mM NADPH, 50 mM potassium phosphate pH 7.4, 30 C, substrate 0-40 mM
purified protein [2] = substrate: O=CC(=O)O; experiment: purified protein; assay type: biochemical, Saccharomyces cerevisiae; conditions: 0.25 mM NADPH, 50 mM potassium phosphate pH 7.4, 30 C, substrate 0-40 mM

B1: Gor1p (Saccharomyces cerevisiae S288C) (protein)
chain: MSKKPIVLKLGKDAFGDQAWGELEKIADVITIPESTTREQFLREVKDPQNKLSQVQVITRTARSVKNTGRFDEELALALPSSVVAVCHTGAGYDQIDVEPFKKRHIQVANVPDLVSNATADTHVFLLLGALRNFGIGNRRLIEGNWPEAGPACGSPFGYDPEGKTVGILGLGRIGRCILERLKPFGFENFIYHNRHQLPSEEEHGCEYVGFEEFLKRSDIVSVNVPLNHNTHHLINAETIEKMKDGVVIVNTARGAVIDEQAMTDALRSGKIRSAGLDVFEYEPKISKELLSMSQVLGLPHMGTHSVETRKKMEELVVENAKNVILTGKVLTIVPELQNEDWPNESKPLV
notes: C-terminal 6xHis tag, tag cut not mentioned, expressed in E. coli BL21(DE3), Ni-NTA purified
- Km (purified protein [1]): 22.7 mM
- Km (purified protein [2]): 8.4 mM
